Measured values from patent US20240132624A1 (Ablynx, published 2024).

Assays:
human FcRn/b2M [1] = target: T1, human FcRn/b2M (human, UniProt P61769 21-119, biotinylated); assay: SPR pH 6.0;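 note: surface plasmon resonance kinetics at 25 °C, diluted periplasmic extracts injected over immobilized ligand surfaces, 120 s association then 600–3600 s dissociation, running buffer containing 150 mM NaCl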
T1 construct: bought recombinant biotinylated protein (ACRO FCM-H82W4 or Immunitrack ITF01); also called hFcRn; hFcRn/hb2M
T1 sequence (chain, as listed by the source limits assumed, chain 1 of 2): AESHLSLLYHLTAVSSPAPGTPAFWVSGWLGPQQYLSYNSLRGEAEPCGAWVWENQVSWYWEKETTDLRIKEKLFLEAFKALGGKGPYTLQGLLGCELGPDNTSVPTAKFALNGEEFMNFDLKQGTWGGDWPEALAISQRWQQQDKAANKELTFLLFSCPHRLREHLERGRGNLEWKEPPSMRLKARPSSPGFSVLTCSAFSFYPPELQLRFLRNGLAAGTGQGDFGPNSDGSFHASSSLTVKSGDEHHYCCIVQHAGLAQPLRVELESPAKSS
T1 sequence (P61769 21-119 limits assumed, chain 2 of 2): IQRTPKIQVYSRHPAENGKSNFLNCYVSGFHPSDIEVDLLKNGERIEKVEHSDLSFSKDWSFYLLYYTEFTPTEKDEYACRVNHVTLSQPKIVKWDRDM
Experimental: (§1) All kinetic measurements have been performed on ProteOn XPR36 (BioRad Laboratories, Inc.), MASS-2 (Sierra sensors, Gmbh) or SPR-32 (Bruker Corporation). […] The phytip purified periplasmic extracts were diluted 1:10 in running buffer (CPA+150 mM NaCl+0.005% Tw20 at pH 5.5, pH 6.0 or pH 7.4) and injected over the ligand surfaces (association: 120 s at 45 μL/min; dissociation: 600s-3600 s at 45 μL/min). Experiments were carried out at 25° C.

cyno FcRn/b2M [2] = target: T2, cyno FcRn/b2M (cyno, UniProt Q8SPV9 24-297; Q8SPW0 21-119, biotinylated); assay: SPR pH 6.0;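 note: surface plasmon resonance kinetics at 25 °C, diluted periplasmic extracts injected over immobilized ligand surfaces, 120 s association then 600–3600 s dissociation, running buffer containing 150 mM NaCl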
T2 construct: bought recombinant biotinylated protein (Immunitrack ITF05 or ACRO FCM-C82W5); also called cFcRn; cFcRn/cb2M
T2 sequence (Q8SPV9 24-297 limits assumed, chain 1 of 2): as the sequence (chain, as listed by the source limits assumed, chain 1 of 2) above, with N39D, E44Q, G99S, S189G, S190N, L217M, S269T counted along it
T2 sequence (Q8SPW0 21-119 limits assumed, chain 2 of 2): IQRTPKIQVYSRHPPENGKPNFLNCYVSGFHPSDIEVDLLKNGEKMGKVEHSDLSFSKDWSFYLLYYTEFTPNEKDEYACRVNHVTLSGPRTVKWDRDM
Experimental: as §1

human FcRn/b2M [3] = target: T1, human FcRn/b2M; assay: SPR pH 7.4;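 note: surface plasmon resonance kinetics, periplasmic extracts diluted 1:10 flowed over immobilized target at 25 °C, 120 s association then 600–3600 s dissociation, buffer with 150 mM NaCl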
Experimental: as §1

cyno FcRn/b2M [4] = target: T2, cyno FcRn/b2M; assay: SPR pH 7.4;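 note: surface plasmon resonance kinetics, periplasmic extracts diluted 1:10 flowed over immobilized target at 25 °C, 120 s association then 600–3600 s dissociation, buffer with 150 mM NaCl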
Experimental: as §1

human FcRn/b2M [5] = target: T1, human FcRn/b2M; assay: SPR off-rate; pH 7.4 vs pH 6.0;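 note: surface plasmon resonance with diluted periplasmic extracts flowed over ligand surfaces, 120 s association and 600–3600 s dissociation at 25 °C, running buffer containing 150 mM NaCl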
Experimental: as §1

cyno FcRn/b2M [6] = target: T2, cyno FcRn/b2M; assay: SPR off-rate; pH 7.4 vs pH 6.0;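 note: surface plasmon resonance with diluted periplasmic extracts flowed over ligand surfaces, 120 s association and 600–3600 s dissociation at 25 °C, running buffer containing 150 mM NaCl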
Experimental: as §1

| Binder | koff (human FcRn/b2M [1]) [s⁻¹] | koff (cyno FcRn/b2M [2]) [s⁻¹] | koff (human FcRn/b2M [3]) [s⁻¹] | koff (cyno FcRn/b2M [4]) [s⁻¹] | kd ratio pH 7.4/6.0 (human FcRn/b2M [5]) | kd ratio pH 7.4/6.0 (cyno FcRn/b2M [6]) |
| --- | --- | --- | --- | --- | --- | --- |
| T0263018B11 A33G (VHH, name in Kabat numbering, FLAG3-His6 tagged) VHH: EVQLVESGGGVVQPGGSLRLSCAASGFTFSSYGMYWVRQAPGKGLEWVSAISSGGGSTDYADSVKGRFTISRDNSKNTLYLQMNSLRPEDTALYYCAADTLYTSLTWYSYWGQGTLVTVSS | 0.0013 | 0.0011 | 0.034 | 0.04 | 26 | 36 |
| T0263018B11 F29S (VHH, name in Kabat numbering, FLAG3-His6 tagged) VHH: EVQLVESGGGVVQPGGSLRLSCAASGFTSSSYAMYWVRQAPGKGLEWVSAISSGGGSTDYADSVKGRFTISRDNSKNTLYLQMNSLRPEDTALYYCAADTLYTSLTWYSYWGQGTLVTVSS | 0.0016 | 0.0013 | 0.066 | 0.059 | 41 | 45 |
| T0263018B11 T28A (VHH, name in Kabat numbering, FLAG3-His6 tagged) VHH: EVQLVESGGGVVQPGGSLRLSCAASGFAFSSYAMYWVRQAPGKGLEWVSAISSGGGSTDYADSVKGRFTISRDNSKNTLYLQMNSLRPEDTALYYCAADTLYTSLTWYSYWGQGTLVTVSS | – | 0.00052 | 0.046 | 0.033 | – | – |
| T0263018B11 F29H (VHH, name in Kabat numbering, FLAG3-His6 tagged) VHH: EVQLVESGGGVVQPGGSLRLSCAASGFTHSSYAMYWVRQAPGKGLEWVSAISSGGGSTDYADSVKGRFTISRDNSKNTLYLQMNSLRPEDTALYYCAADTLYTSLTWYSYWGQGTLVTVSS | 0.0039 | 0.0031 | 0.14 | 0.13 | 36 | 42 |
| T0263018B11 F27L (VHH, name in Kabat numbering, FLAG3-His6 tagged) VHH: EVQLVESGGGVVQPGGSLRLSCAASGLTFSSYAMYWVRQAPGKGLEWVSAISSGGGSTDYADSVKGRFTISRDNSKNTLYLQMNSLRPEDTALYYCAADTLYTSLTWYSYWGQGTLVTVSS | 0.0013 | 0.001 | 0.05 | 0.048 | 38 | 48 |
| T0263018B11 F27Y (VHH, name in Kabat numbering, FLAG3-His6 tagged) VHH: EVQLVESGGGVVQPGGSLRLSCAASGYTFSSYAMYWVRQAPGKGLEWVSAISSGGGSTDYADSVKGRFTISRDNSKNTLYLQMNSLRPEDTALYYCAADTLYTSLTWYSYWGQGTLVTVSS | 0.0012 | 0.00042 | 0.054 | 0.039 | 45 | 93 |
| T0263018B11 S56M (VHH, name in Kabat numbering, FLAG3-His6 tagged) VHH: EVQLVESGGGVVQPGGSLRLSCAASGFTFSSYAMYWVRQAPGKGLEWVSAISSGGGMTDYADSVKGRFTISRDNSKNTLYLQMNSLRPEDTALYYCAADTLYTSLTWYSYWGQGTLVTVSS | – | – | – | – | 31 | – |
| T0263018B11 F29G (VHH, name in Kabat numbering, FLAG3-His6 tagged) VHH: EVQLVESGGGVVQPGGSLRLSCAASGFTGSSYAMYWVRQAPGKGLEWVSAISSGGGSTDYADSVKGRFTISRDNSKNTLYLQMNSLRPEDTALYYCAADTLYTSLTWYSYWGQGTLVTVSS | 0.0033 | 0.0025 | 0.15 | 0.14 | 45 | 56 |
| T0263018B11 A33Q (VHH, name in Kabat numbering, FLAG3-His6 tagged) VHH: EVQLVESGGGVVQPGGSLRLSCAASGFTFSSYQMYWVRQAPGKGLEWVSAISSGGGSTDYADSVKGRFTISRDNSKNTLYLQMNSLRPEDTALYYCAADTLYTSLTWYSYWGQGTLVTVSS | 0.0018 | 0.0027 | 0.065 | 0.13 | 36 | 48 |
| T0263018B11 A33S (VHH, name in Kabat numbering, FLAG3-His6 tagged) VHH: EVQLVESGGGVVQPGGSLRLSCAASGFTFSSYSMYWVRQAPGKGLEWVSAISSGGGSTDYADSVKGRFTISRDNSKNTLYLQMNSLRPEDTALYYCAADTLYTSLTWYSYWGQGTLVTVSS | 0.0015 | 0.0013 | 0.059 | 0.065 | 39 | 50 |
| T0263018B11 F29D (VHH, name in Kabat numbering, FLAG3-His6 tagged) VHH: EVQLVESGGGVVQPGGSLRLSCAASGFTDSSYAMYWVRQAPGKGLEWVSAISSGGGSTDYADSVKGRFTISRDNSKNTLYLQMNSLRPEDTALYYCAADTLYTSLTWYSYWGQGTLVTVSS | 0.0036 | 0.0028 | 0.14 | 0.15 | 39 | 54 |
| T0263018B11 D58E (VHH, name in Kabat numbering, FLAG3-His6 tagged) VHH: EVQLVESGGGVVQPGGSLRLSCAASGFTFSSYAMYWVRQAPGKGLEWVSAISSGGGSTEYADSVKGRFTISRDNSKNTLYLQMNSLRPEDTALYYCAADTLYTSLTWYSYWGQGTLVTVSS | 0.0024 | 0.0012 | 0.08 | 0.038 | 33 | 32 |
| T0263018B11 F29V (VHH, name in Kabat numbering, FLAG3-His6 tagged) VHH: EVQLVESGGGVVQPGGSLRLSCAASGFTVSSYAMYWVRQAPGKGLEWVSAISSGGGSTDYADSVKGRFTISRDNSKNTLYLQMNSLRPEDTALYYCAADTLYTSLTWYSYWGQGTLVTVSS | 0.0021 | 0.0016 | 0.089 | 0.086 | 42 | 54 |
| T0263018B11 D58H (VHH, name in Kabat numbering, FLAG3-His6 tagged) VHH: EVQLVESGGGVVQPGGSLRLSCAASGFTFSSYAMYWVRQAPGKGLEWVSAISSGGGSTHYADSVKGRFTISRDNSKNTLYLQMNSLRPEDTALYYCAADTLYTSLTWYSYWGQGTLVTVSS | 0.012 | 0.002 | 0.079 | 0.022 | 7 | 11 |
| T0263018B11 S52aD (VHH, name in Kabat numbering, FLAG3-His6 tagged) VHH: EVQLVESGGGVVQPGGSLRLSCAASGFTFSSYAMYWVRQAPGKGLEWVSAISDGGGSTDYADSVKGRFTISRDNSKNTLYLQMNSLRPEDTALYYCAADTLYTSLTWYSYWGQGTLVTVSS | – | 0.00089 | 0.044 | 0.051 | – | – |
| T0263018B11 D58V (VHH, name in Kabat numbering, FLAG3-His6 tagged) VHH: EVQLVESGGGVVQPGGSLRLSCAASGFTFSSYAMYWVRQAPGKGLEWVSAISSGGGSTVYADSVKGRFTISRDNSKNTLYLQMNSLRPEDTALYYCAADTLYTSLTWYSYWGQGTLVTVSS | 0.015 | 0.0025 | 0.14 | 0.027 | 9 | 11 |
| T0263018B11 D58Y (VHH, name in Kabat numbering, FLAG3-His6 tagged) VHH: EVQLVESGGGVVQPGGSLRLSCAASGFTFSSYAMYWVRQAPGKGLEWVSAISSGGGSTYYADSVKGRFTISRDNSKNTLYLQMNSLRPEDTALYYCAADTLYTSLTWYSYWGQGTLVTVSS | 0.01 | 0.002 | 0.089 | 0.025 | 9 | 12 |
| T0263018B11 A33T (VHH, name in Kabat numbering, FLAG3-His6 tagged) VHH: EVQLVESGGGVVQPGGSLRLSCAASGFTFSSYTMYWVRQAPGKGLEWVSAISSGGGSTDYADSVKGRFTISRDNSKNTLYLQMNSLRPEDTALYYCAADTLYTSLTWYSYWGQGTLVTVSS | 0.00011 | 0.00011 | 0.0038 | 0.0058 | 36 | 54 |
| T0263018B11 T57Y (VHH, name in Kabat numbering, FLAG3-His6 tagged) VHH: EVQLVESGGGVVQPGGSLRLSCAASGFTFSSYAMYWVRQAPGKGLEWVSAISSGGGSYDYADSVKGRFTISRDNSKNTLYLQMNSLRPEDTALYYCAADTLYTSLTWYSYWGQGTLVTVSS | – | 0.00084 | 0.033 | 0.035 | – | – |
| T0263018B11 A33V (VHH, name in Kabat numbering, FLAG3-His6 tagged) VHH: EVQLVESGGGVVQPGGSLRLSCAASGFTFSSYVMYWVRQAPGKGLEWVSAISSGGGSTDYADSVKGRFTISRDNSKNTLYLQMNSLRPEDTALYYCAADTLYTSLTWYSYWGQGTLVTVSS | 0.00022 | 0.00024 | 0.0082 | 0.013 | 37 | 53 |
| T0263018B11 A94S (VHH, name in Kabat numbering, FLAG3-His6 tagged) VHH: EVQLVESGGGVVQPGGSLRLSCAASGFTFSSYAMYWVRQAPGKGLEWVSAISSGGGSTDYADSVKGRFTISRDNSKNTLYLQMNSLRPEDTALYYCASDTLYTSLTWYSYWGQGTLVTVSS | 0.0013 | 0.0011 | 0.046 | 0.047 | 35 | 43 |
| T0263018B11 A93V (VHH, name in Kabat numbering, FLAG3-His6 tagged) VHH: EVQLVESGGGVVQPGGSLRLSCAASGFTFSSYAMYWVRQAPGKGLEWVSAISSGGGSTDYADSVKGRFTISRDNSKNTLYLQMNSLRPEDTALYYCVADTLYTSLTWYSYWGQGTLVTVSS | 0.003 | 0.0021 | 0.15 | 0.14 | 50 | 67 |
